These are literature values, as cited in PMC8620506.

This data set has as its target NS4B (Dengue virus) (UniProt P27909).

Take NS4A (from UniProt P27909): the Kd (commonly the free concentration of one partner at which half of the binding sites on the other are occupied at equilibrium, for simple one-to-one binding) is 50 nM.
